From US20230110128A1, “USE OF ANTIBODY DRUG CONJUGATES COMPRISING TUBULIN DISRUPTING AGENTS TO TREAT SOLID TUMOR” (Seagen Inc., priority 2018, published 2023)

Columns and labels:
MCF7 breast cancer cells = assay: Western blot analysis of ER stress response in MCF7 cells; assay type: cell-based; conditions: FIG. 16A
Experimental: MCF7 breast cancer cells were treated with 100 nM MMAE for 16 hours and harvested RIPA buffer for western blot analysis.
(§1) MCF7 cells were treated with MMAE or an MMAE-containing ADC (SGN-LIV1A) for 16 hours and harvested in […] for western bot analysis. […] Induction of ICD is also characterized by the secretion of ATP and HMGB1. Extracellular ATP serves as a strong chemotactic signal, promoting immune cell migration to the tumor site. Upon arrival, extracellular HMGB1 signals through various pro-inflammatory receptors (TLR2, TLR4, RAGE) to activate antigen-presenting cells, thereby promoting immune activity within the tumor.

MCF7 cells [1] = assay: ATP secretion from MCF7 cells; assay type: cell-based
MCF7 cells [2] = assay: HMGB1 release from MCF7 cells; assay type: cell-based
Experimental: Induction of ICD is also characterized by the secretion of ATP and HMGB1. Extracellular ATP serves as a strong chemotactic signal, promoting immune cell migration to the tumor site. Upon arrival, extracellular HMGB1 signals through various pro-inflammatory receptors (TLR2, TLR4, RAGE) to activate antigen-presenting cells, thereby promoting immune activity within the tumor.
as §1

[3] = system: PC-3 cells subcutaneously engrafted; assay: Immune cell infiltration of PC-3 tumors by flow cytometry; assay type: in vivo, athymic nude mice; conditions: single intraperitoneal dose, 8 days post-ADC treatment
Text: Athymic nude mice were subcutaneously engrafted with PC-3 cells. Upon reaching 200 cubic millimeters, mice received a single intraperitoneal dose of an MMAE-containing ADC (SGN-LIV1A or anti-CD71-MMAE). 8 days post-ADC treatment, tumors were excised and assessed for immune cell infiltration and composition by flow cytometry.

[4] = system: PC-3 cells subcutaneously engrafted; assay: Cytokine/chemokine production in PC-3 tumor-bearing mice by ELISA; assay type: in vivo, athymic nude mice; conditions: PC-3 tumors, single intraperitoneal dose, 8 days post-ADC treatment
Experimental: In another study, athymic nude mice were subcutaneously engrafted with PC-3 cells. Upon reaching 200 cubic millimeters, mice received a single intraperitoneal dose of an MMAE-containing ADC (SGN-LIV1A or anti-CD71-MMAE). 8 days post-ADC treatment, tumors were excised and homogenized in RIPA buffer and cytokine/chemokine production was measured by ELISA. Peripheral cytokine levels were also measured in the serum by ELISA.

[5] = system: MCF7 cells subcutaneously engrafted; assay: Immune cell composition of MCF7 tumors by flow cytometry; assay type: in vivo; conditions: SOD mice with MCF7 tumors, single intraperitoneal dose, 8 days post-ADC treatment
Text: […] were subcutaneously engrafted with MCF7 cells. Upon reaching 200 cubic millimeters, mice received a single intraperitoneal dose of an MMAE-containing ADC (SGN-LIV1A or anti-CD71-MMAE). 8 days post-ADC treatment, tumors were excised and assessed for immune cell composition by flow cytometry.

B1: SGN-LIV1A (conjugate, chains of the INN, looked up)
VH: QVQLVQSGAEVKKPGASVKVSCKASGLTIEDYYMHWVRQAPGQGLEWMGWIDPENGDTEYGPKFQGRVTMTRDTSINTAYMELSRLRSDDTAVYYCAVHNAHYGTWFAYWGQGTLVTVSS
VL: DVVMTQSPLSLPVTLGQPASISCRSSQSLLHSSGNTYLEWYQQRPGQSPRPLIYKISTRFSGVPDRFSGSGSGTDFTLKISRVEAEDVGVYYCFQGSHVPYTFGGGTKVEIK
modifications: vedotin (MMAE) payload
Which results are given for B1?
Severe ER stress (phosphorylation of IRE1 and JNK) (MCF7 breast cancer cells): elicits severe ER stress (phosphorylation of IRE1 and JNK); Secretion of ATP (MCF7 cells [1]): increased secretion; ATP secretion (MCF7 cells [1]; after 48 hours of treatment): Increased AIR secretion; Secretion of HMGB1 (MCF7 cells [2]): increased secretion; Activation of tumor-infiltrating immune cells [3]: enhanced activation; Infiltration of immune cells into tumors [3]: increased infiltration of immune cells; Cytokine and chemokine production (intratumoral and serum) [4]: elevated cytokine and chemokine production; Immune activation by tumor-infiltrating immune cells [5]: increased level of immune activation by tumor-infiltrating immune cells
